Measurements taken from patent publication US20230183331A1.

Target: IL-2 receptor (IL-2R) on primary pan T-cells from healthy donors (human) (UniProt P01589)
Test: cell-based or functional assay

Sequence of IL-2 receptor (IL-2R) on primary pan T-cells from healthy donors (human) (P01589 22-272, chain 1 of 3): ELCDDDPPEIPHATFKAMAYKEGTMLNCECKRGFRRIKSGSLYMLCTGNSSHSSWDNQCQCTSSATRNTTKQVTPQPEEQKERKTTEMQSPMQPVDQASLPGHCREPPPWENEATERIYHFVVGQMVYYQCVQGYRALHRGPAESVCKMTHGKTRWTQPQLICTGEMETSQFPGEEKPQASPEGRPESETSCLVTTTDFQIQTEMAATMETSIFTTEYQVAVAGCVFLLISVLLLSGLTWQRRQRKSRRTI
Sequence of IL-2 receptor (IL-2R) on primary pan T-cells from healthy donors (human) (P14784 27-551, chain 2 of 3, further chain): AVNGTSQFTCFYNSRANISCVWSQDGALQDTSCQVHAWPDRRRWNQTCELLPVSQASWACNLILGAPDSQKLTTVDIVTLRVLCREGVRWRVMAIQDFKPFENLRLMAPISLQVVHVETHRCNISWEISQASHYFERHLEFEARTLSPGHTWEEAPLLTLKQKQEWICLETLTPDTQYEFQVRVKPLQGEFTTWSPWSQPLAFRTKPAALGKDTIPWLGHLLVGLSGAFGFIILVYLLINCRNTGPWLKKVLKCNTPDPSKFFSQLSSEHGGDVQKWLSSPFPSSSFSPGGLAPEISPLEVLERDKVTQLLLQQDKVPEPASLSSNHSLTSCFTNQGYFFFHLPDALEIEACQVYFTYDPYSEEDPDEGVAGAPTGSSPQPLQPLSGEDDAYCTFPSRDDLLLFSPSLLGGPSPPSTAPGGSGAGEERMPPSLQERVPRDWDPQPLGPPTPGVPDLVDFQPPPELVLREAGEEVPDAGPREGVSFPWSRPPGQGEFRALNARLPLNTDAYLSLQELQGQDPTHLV
Sequence of IL-2 receptor (IL-2R) on primary pan T-cells from healthy donors (human) (P31785 23-369, chain 3 of 3, further chain): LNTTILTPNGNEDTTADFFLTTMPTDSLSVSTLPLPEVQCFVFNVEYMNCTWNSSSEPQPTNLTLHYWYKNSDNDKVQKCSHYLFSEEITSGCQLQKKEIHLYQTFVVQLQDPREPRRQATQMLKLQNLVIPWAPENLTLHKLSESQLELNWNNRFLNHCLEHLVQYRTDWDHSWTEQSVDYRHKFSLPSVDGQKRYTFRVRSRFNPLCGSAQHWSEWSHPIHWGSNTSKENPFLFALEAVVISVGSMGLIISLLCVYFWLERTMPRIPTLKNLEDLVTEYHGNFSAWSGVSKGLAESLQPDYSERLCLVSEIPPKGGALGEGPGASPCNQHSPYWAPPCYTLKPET

Aldesleukin (from UniProt P60568 22-153) (ligand)
CD8 EC50 (nM), STAT5 phosphorylation: 9.07 nM
CD8 naïve EC50 (nM), STAT5 phosphorylation: 477 nM
Treg EC50 (nM), STAT5 phosphorylation: 0.019 nM
